Reference: patent publication US20230355708A1 (DREXEL UNIVERSITY, published 2023)

Molecular target: SARS-CoV-2 spike S2 subunit (SARS-CoV-2, UniProt P0DTC2 686-1213)
Assay: SPR, S2 anchored on low dextran chip, CVN injected at increasing concentrations

B1: Cyanovirin-N (CV-N) (other)
chain: LGKFSQTCYNSAIQGSVLTSTCERTNGGYNTSSIDLNSVIENVDGSLKWQPSNFIETCRNTQLAGSSELAAECKTRAQQFVSTKINLDDHIANIDGTLKYE
B1: binds.
